# Patent US20220169693A1, “Screening Assays, Modulators and Modulation of Intracellular Signalling Mediated by Immunoglobulin Superfamily Cell Adhesion Molecules” (Monash University, priority 2018, published 2022)
# How the values were obtained:
# AT1R-CHO cells = assay: p65 expression in AT1R-CHO cells expressing the truncated construct alone; assay type: cell-based, Chinese Hamster; settings: AT1R-CHO cells, Ang II 1 μM (FIG. 3A, 5A, 5B)
# Experimental: (§1) Adult retinal pigment epithelial (ARPE) cells were cultured in Dulbecco's modified Eagle's medium (DMEM)/F12 endothelial cell growth supplement (ECGS) supplemented media. Chinese Hamster Ovary (CHO) cells were cultured using F12 media (10% FCS with 2 mM glutamine). Human microvascular endothelial cells (HMEC) were cultured in MCDB 131 medium (10% FCS with 10 mM glutamine, EGF and hydrocortisone).
# (§2) 100 ng of AT1R-Rluc8 construct was transfected into CHO cells using Lipofectamine 2000 (Thermo). Stable transfectants were selected using G418. AT1R-CHO were then transiently transfected with the IgSF CAM and/or RAGE constructs using Lipofectamine 2000 (Invitrogen) and incubated for 16h.
# Oligonucleotides were designed and ordered to generate the ALCAM, BCAM and MCAM intracellular (cytosolic) domains. These included a 5′ NheI site, Kozak sequence and initiating Methionine and then DNA sequences corresponding to ALCAM residues 552-583, BCAM residues 569-628 and MCAM residues 584-637 respectively (Note that as residue 551 of ALCAM is Methionine, the cytosolic tail of ALCAM effectively corresponded to residues 551-583). The pCIneo parental vector was digested with NheI and NotI restriction enzymes, and the DNA of the fragments of the ALCAM, BCAM and MCAM tails/cytosolic domains were ligated into the digested plasmid. After transformation and recovery, colonies were screened and individual clones sequenced. The sequence of the insert was confirmed by DNA sequencing (Micromon, Monash University). A full-length clone of Mouse ALCAM (BC027280) was purchased from Origene. The untagged clone was supplied in the vector pCMV6. Overlapping DNA sequences were ordered to generate the ALCAM559-580 fragment oligonucleotide. These included a 5′ NheI site, Kozak sequence and initiating Methionine and then DNA sequences corresponding to ALCAM residues 559-580. The pCIneo parental vector was digested with NheI and NotI restriction enzymes, and the ALCAM559-580 construct DNA was ligated into the digested plasmid. After transformation and recovery, colonies were screened and individual clones sequenced.
# After 2 hours of exposure to Ang II (1 μM) cells were placed in Trizol, mRNA extracted and cDNA synthesized. Changes in the gene expression of the NFκB subunit, p65 (RelA) or NFκB-activated target genes (e.g ICAM-1) were estimated by quantitative real-time RT-PCR, performed using the TaqMan system based on real-time detection of accumulated fluorescence (ABI Prism 7700, Perkin-Elmer Inc, PE Biosystems, Foster City, Calif., USA). Gene expression was normalized to 18S mRNA and reported as fold change compared to the level of expression in untreated control mice/cells, which were given an arbitrary value of 1.
# [1] = biological target: T1, full length murine ALCAM1-583 (Mus musculus, UniProt Q61490); assay: S100A8/A9-induced PCNA expression in CHO cells transfected with full length murine ALCAM; assay type: cell-based; settings: S100A8/A9 1 μM 2 h, co-transfection (FIG. 4A)
# T1 construct: host or cells: AT1R-CHO (CHO stably transfected with human AT1R-Rluc8), transient transfection; untagged clone in pCMV6
# T1 sequence (Q61490 28-583): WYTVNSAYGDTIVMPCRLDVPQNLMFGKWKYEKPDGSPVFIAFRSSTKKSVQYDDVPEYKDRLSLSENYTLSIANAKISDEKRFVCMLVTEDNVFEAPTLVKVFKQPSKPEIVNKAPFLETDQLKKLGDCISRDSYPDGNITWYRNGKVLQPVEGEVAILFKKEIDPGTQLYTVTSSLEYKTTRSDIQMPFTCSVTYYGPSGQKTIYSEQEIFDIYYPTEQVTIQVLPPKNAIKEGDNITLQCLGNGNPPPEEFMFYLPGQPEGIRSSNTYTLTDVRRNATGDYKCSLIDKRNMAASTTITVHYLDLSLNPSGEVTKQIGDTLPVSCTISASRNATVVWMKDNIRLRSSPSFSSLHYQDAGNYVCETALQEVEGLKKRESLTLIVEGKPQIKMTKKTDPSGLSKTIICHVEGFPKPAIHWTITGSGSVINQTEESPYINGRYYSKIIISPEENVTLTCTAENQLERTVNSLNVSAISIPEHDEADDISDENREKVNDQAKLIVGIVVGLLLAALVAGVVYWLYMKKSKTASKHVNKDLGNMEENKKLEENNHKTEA
# Experimental: as §1
# Oligonucleotides were designed and ordered to generate the ALCAM, BCAM and MCAM intracellular (cytosolic) domains. These included a 5′ NheI site, Kozak sequence and initiating Methionine and then DNA sequences corresponding to ALCAM residues 552-583, BCAM residues 569-628 and MCAM residues 584-637 respectively (Note that as residue 551 of ALCAM is Methionine, the cytosolic tail of ALCAM effectively corresponded to residues 551-583). The pCIneo parental vector was digested with NheI and NotI restriction enzymes, and the DNA of the fragments of the ALCAM, BCAM and MCAM tails/cytosolic domains were ligated into the digested plasmid. […]
# […] Changes in the gene expression of the NFκB subunit, p65 (RelA) or NFκB-activated target genes (e.g ICAM-1) were estimated by quantitative real-time RT-PCR, performed using the TaqMan system based on real-time detection of accumulated fluorescence (ABI Prism 7700, Perkin-Elmer Inc, PE Biosystems, Foster City, Calif., USA). […]
# [2] = biological target: T2, cytosolic tail of BCAM, BCAM569-628 (Homo sapiens, UniProt P50895); assay: Ang II-induced p65 expression in AT1R-CHO cells transfected with cytosolic tail of BCAM; assay type: cell-based; parameters: corresponds to residues 569-628 of BCAM plus an initiating Methionine; initiating Methionine (N); expressed in transfected cells; host or cells: AT1R-CHO (CHO stably transfected with human AT1R-Rluc8); insert in pCIneo; settings: Ang II 1 μM, co-transfection (FIG. 3H)
# T2 sequence (P50895 with tags, fused parts or gaps): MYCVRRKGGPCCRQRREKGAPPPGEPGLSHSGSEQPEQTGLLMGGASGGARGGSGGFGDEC
# Experimental: as §1, §2
# (§3) Oligonucleotides were designed and ordered to generate the ALCAM, BCAM and MCAM intracellular (cytosolic) domains. […]
# (§4) After 2 hours of exposure to Ang II (1 μM) cells were placed in Trizol, mRNA extracted and cDNA synthesized. Changes in the gene expression of the NFκB subunit, p65 (RelA) or NFκB-activated target genes (e.g ICAM-1) were estimated by quantitative real-time RT-PCR, performed using the TaqMan system based on real-time detection of accumulated fluorescence (ABI Prism 7700, Perkin-Elmer Inc, PE Biosystems, Foster City, Calif., USA). […]
# [3] = biological target: T3, cytosolic tail of MCAM, MCAM584-637 (Homo sapiens, UniProt P43121); assay: Ang II-induced p65 expression in AT1R-CHO cells transfected with cytosolic tail of MCAM; assay type: cell-based; parameters: corresponds to residues 584-637 of MCAM plus an initiating Methionine; initiating Methionine (N); expressed in transfected cells; host or cells: AT1R-CHO (CHO stably transfected with human AT1R-Rluc8); insert in pCIneo; settings: Ang II 1 μM, co-transfection (FIG. 3I)
# T3 sequence (P43121 with tags, fused parts or gaps): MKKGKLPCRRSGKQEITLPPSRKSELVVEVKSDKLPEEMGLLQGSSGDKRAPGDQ
# Experimental: as §1, §2, §3, §4
sequence,measurement,setting,value
MKHVNKDLGNMEENKKLEENNHK [ALCAM559-580],induction of p65 expression by Ang II when the construct alone is expressed,AT1R-CHO cells,failed to increase the expression of p65
same,ligand-dependent signalling (PCNA expression) via murine ALCAM activated by S100A8/A9,[1],inhibited
same,induction of p65-NFκB expression by Ang II via transactivation of BCAM569-628,[2],prevents induction
same,induction of p65-NFκB expression by Ang II via transactivation of MCAM584-637,[3],prevents induction
